Paper PMC2685181 (The Journal of neuroscience : the official journal of the …, 2008)
Residue numbers refer to the chain shown, from its start. Where no end group is shown, it is not given here.

B1: GST_I-II loop with five alanines inserted between F376 and L377 (domain or fragment, rabbit, UniProt P27884 369-413, looked up)
chain: RVENRRAFAAAAALKLRRQQQIERELNGYMEWISKAEEVILAEDETDVEQ
B2: GST_I-II loop with five glycines inserted between F376 and L377 (domain or fragment, rabbit, UniProt P27884 369-413, looked up)
chain: B1 chain with A9G, A10G, A11G, A12G, A13G
modifications: not fully specified
B3: GST_I-II loop with seven glycines inserted between F376 and L377 (domain or fragment, rabbit, UniProt P27884 369-413, looked up)
chain: RVENRRAFGGGGGGGLKLRRQQQIERELNGYMEWISKAEEVILAEDETDVEQ
modifications: not fully specified
B4: GST_I-II loop with seven alanines inserted between F376 and L377 (domain or fragment, rabbit, UniProt P27884 369-413, looked up)
chain: RVENRRAFAAAAAAALKLRRQQQIERELNGYMEWISKAEEVILAEDETDVEQ

These binders were tested against WT β1b_core (core region of Ca2+ channel β1b subunit, G58-T418) (human, UniProt Q02641-1 58-418) (assay: pull-down).
WT β1b_core (core region of Ca2+ channel β1b subunit, G58-T418), sequence (Q02641 58-418): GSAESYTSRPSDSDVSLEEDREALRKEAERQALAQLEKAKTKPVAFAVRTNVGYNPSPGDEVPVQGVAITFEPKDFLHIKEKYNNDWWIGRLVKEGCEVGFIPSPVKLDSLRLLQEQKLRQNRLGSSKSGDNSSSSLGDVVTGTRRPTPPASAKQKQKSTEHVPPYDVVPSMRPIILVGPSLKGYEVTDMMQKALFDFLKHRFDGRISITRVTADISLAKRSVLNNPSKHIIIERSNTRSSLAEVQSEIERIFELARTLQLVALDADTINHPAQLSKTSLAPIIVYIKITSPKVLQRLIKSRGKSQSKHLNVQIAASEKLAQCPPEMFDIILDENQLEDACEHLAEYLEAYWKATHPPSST

binding result | Binder
binds | B1
binds | B2
binds | B3
binds | B4
